These results are taken from paper PMC9693254.

Substrate in this data set: CCOC(=O)[C@H](CCCNC(=N)N)NC(=O)c1ccccc1
The data set can be described thus: purified protein. As to conditions: 50 mM Tris/HCl pH 8.0, 25 mM NaCl, 1 mM EDTA, 25 °C, substrate 25–100 μM, apparent Km, numbering of proCCN.

[1] abbreviates: CCN' auto-processed from proCCN'.
[2] abbreviates: mature CCN' prepared from [K8D,K63G,K131G,K133A]-proCCN (K8D lies in the removed propeptide,.

Residue numbers refer to the chain shown, from its start. In names and notes the source's numbering stands.

B1: cocoonase (CCN), mature form (Bombyx mori; K85G) (protein)
chain: IVGGEEISINKVPYQAYLLLQKDNEYFQCGGSIISKRHILTAAHCIEGISGVTVRIGSSNSNKGGTVYTAKSKVAHPKYNSKTKNNDFAIVTVNKDMAIDGKTTKIITLAKEGSSVPDKTKLLVSGWGATSEGGSSSTTLRAVHVQAHSDDECKKYFRSLTSNMFCAGPPEGGKDSCQGDSGGPAVKGNVQLGVVSFGVGCARKNNPGIYAKVSAAAKWIKST
Take B1: the Km turned out to be 400 µM and the Vmax is 0.006 µM/min.

B2: cocoonase (CCN), mature form (Bombyx mori; K153G/K155A/K85G) (protein)
chain: B1 chain with K119G, K121A
Regarding B2, under setting [1], the Km is 370 µM and the Vmax is 0.0084 µM/min. In addition, under setting [2], the Km worked out at 920 µM and the maximal velocity (Vmax) is 0.0276 µM/min.
